Data as given in patent US20100111986A1 (Memorial Sloan Kettering, published 2010).

Target: T1, HLA-A0201 (human)
T1 construct: MHC class I molecule on T2 cells; also called HLA-A2.1; HLA 0201
Experiment: T2 cell HLA stabilization assay, flow cytometry
Procedure: T2 cells (TAP″, HLA-A0201⁺) were incubated overnight at 27° C. at a concentration of 1×10⁶ cells/ml in FCS-free RPMI medium supplemented with 5 μg/ml human β₂m (Sigma, St Louis, Mo.) in the absence (negative control) or presence of either a positive reference tyrosinase peptide or test peptides at various final concentrations (50, 10, 1, and 0.1 micrograms (μg)/ml). Following a 4-hour incubation with 5 μg/ml brefeldin A (Sigma), T2 cells were labeled for 30 minutes at 4° C. with a saturating concentration of anti-HLA-A2.1 (BB7.2) mAb, then washed twice. Cells were then incubated for 30 minutes, 4° C. with a saturating concentration of FITC-conjugated goat IgG F(ab′)2 anti-mouse Ig (Caltag, San Francisco, Calif.), washed twice, fixed in PBS/1% paraformaldehyde and analyzed using a FACS Calibur® cytofluorometer (Becton Dickinson, Immunocytometry Systems, San Jose, Calif.).
The mean intensity of fluorescence (MIF) observed for each peptide concentration (after dividing by the MIF in the absence of peptide) was used as an indication of peptide binding and expressed as a “fluorescence index.” Stabilization assays were performed similarly. Following initial evaluation of peptide binding at time 0, cells were washed in RPMI complete medium to remove free peptides and incubated in the continuous presence of 0.5 μg/ml brefeldin-A for 2, 4, 6 or 8 hours.

Binding result, binds:
YMFPNAPYL [WT-1 A1 (ANALOGUE)]
RMFPNAPYL [WT-1 A (native)]
YLLPAVPSL [WT-1 C1 (ANALOGUE)]
ALLPAVPSL [WT-1 C (native)]
YLGEQQYSV [WT-1 B1 (ANALOGUE)]
SLGEQQYSV [WT-1 B (native)]
YLGATLKGV [WT-1 D1 (ANALOGUE)]
NLGATLKGV [WT-1 D (native)]

Target: T2, HLA-A0301 (human)
T2 construct: MHC class I molecule on Raji HLA-A0301 cells
Experiment: stabilization assay on Raji HLA-A0301 cells

Binding result, binds:
NMHQRNMTK [A3 WT-1 A (native)]
NMHQRVMTK [A3WT-1 A2 (ANALOGUE)]
NMYQRVMTK [A3 WT-1 A3 (ANALOGUE)]
NMYQRNMTK [A3 WT-1 A1 (ANALOGUE)]
QMNLGATLK [A3 WT-1 B (native)]
QMNLGVTLK [A3WT-1 B2 (ANALOGUE)]
QMYLGATLK [A3WT-1 B1 (ANALOGUE)]
QMYLGVTLK [A3WT-1 B3 (ANALOGUE)]
FMCAYPGCNK [A3WT-1 C (native)]
FMYAYPGCNK [A3WT-1 C1 (ANALOGUE)]
FMCAYPFCNK [A3 WT-1 C2 (ANALOGUE)]
FMYAYPFCNK [A3 WT-1 C3 (ANALOGUE)]
KLSHLQMHSR [A3WT-1 D (native)]
KLSHLQMHSK [A3 WT-1 D2 (ANALOGUE)]
KLYHLQMHSK [A3 WT-1 D3 (ANALOGUE)]
KLYHLQMHSR [A3WT-1 D1 (ANALOGUE)]
